Assay [1] addresses T1, eIF2Bγ in the eIF2Bγε core complex (γ2ε2) (Saccharomyces cerevisiae, UniProt P09032).
T1 construct: gene GCD1; γε core co-overexpressed in yeast, γ-subunit C-terminally FLAG-tagged (GCD1-FLAG2-His6), anti-FLAG purified; GTP adduct seen on dissociated γ; with Translation initiation factor eIF2B subunit epsilon
T1 sequence (P09032 1-578): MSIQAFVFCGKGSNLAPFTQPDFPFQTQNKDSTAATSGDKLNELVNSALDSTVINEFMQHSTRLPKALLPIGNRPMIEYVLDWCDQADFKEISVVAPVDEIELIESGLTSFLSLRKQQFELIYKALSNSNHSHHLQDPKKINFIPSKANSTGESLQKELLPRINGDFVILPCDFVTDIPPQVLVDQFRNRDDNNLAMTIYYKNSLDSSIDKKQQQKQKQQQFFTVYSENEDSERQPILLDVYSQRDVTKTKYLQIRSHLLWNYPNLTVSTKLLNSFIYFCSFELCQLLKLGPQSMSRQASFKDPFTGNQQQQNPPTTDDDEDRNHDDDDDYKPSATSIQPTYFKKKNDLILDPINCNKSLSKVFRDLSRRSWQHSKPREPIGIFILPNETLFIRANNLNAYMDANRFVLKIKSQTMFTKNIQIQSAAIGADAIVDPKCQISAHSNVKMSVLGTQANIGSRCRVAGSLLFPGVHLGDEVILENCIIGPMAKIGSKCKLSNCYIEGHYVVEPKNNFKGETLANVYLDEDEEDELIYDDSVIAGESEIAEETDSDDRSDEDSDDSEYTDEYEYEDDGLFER
T1 sequence (P32501 1-712 partner): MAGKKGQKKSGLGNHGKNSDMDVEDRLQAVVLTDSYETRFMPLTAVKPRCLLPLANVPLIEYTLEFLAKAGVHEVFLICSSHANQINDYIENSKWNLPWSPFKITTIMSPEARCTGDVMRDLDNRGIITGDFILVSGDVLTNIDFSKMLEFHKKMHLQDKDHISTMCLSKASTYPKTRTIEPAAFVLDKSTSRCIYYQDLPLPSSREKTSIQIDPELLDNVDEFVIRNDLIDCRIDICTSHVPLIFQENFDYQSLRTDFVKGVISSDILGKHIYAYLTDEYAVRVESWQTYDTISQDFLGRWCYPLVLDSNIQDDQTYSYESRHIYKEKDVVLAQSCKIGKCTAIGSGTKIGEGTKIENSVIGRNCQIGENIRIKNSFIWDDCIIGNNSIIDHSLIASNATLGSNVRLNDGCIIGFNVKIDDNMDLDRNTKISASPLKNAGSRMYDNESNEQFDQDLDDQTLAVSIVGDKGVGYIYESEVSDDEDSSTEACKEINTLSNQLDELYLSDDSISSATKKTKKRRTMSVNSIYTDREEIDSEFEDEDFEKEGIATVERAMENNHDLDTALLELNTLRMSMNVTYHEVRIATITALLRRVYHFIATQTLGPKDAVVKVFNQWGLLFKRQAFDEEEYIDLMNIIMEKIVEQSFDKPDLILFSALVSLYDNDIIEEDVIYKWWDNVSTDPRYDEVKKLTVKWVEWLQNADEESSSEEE
The assay is described as follows: photo-cross-linking and native nano-electrospray MS. The assay is classed as binding. The settings on record: 10 mM 6-Thio-GTP; UV 365 nm 5 min on ice; 500 mM ammonium acetate; covalent (photo-cross-link); adduct on γ-subunit.

Assay [2] concerns the target T2, eIF2Bα (α-subunit of yeast eIF2B) (S. cerevisiae, UniProt P14741 1-305).
T2 construct: eIF2B alpha subunit (GCN3), S. cerevisiae; Subunit of the purified eIF2B complex, written alone for the subunit pairs; also called eIF2B α-subunit; GCN3
T2 sequence (looked up): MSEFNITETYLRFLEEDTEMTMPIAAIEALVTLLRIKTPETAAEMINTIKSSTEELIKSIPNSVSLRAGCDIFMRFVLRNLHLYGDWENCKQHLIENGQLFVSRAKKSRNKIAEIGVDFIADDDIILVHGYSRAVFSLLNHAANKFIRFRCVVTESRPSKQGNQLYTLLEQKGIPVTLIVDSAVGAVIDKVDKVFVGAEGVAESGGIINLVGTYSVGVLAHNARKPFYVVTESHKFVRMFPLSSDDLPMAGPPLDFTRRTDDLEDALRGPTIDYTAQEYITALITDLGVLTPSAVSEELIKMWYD
Description: cross-linking; BS3-d0/d4 (1:1) added to purified complexes (eIF2:eIF2B, four-subunit eIF2B, eIF2Bγε core), 30 min at 26 °C, trypsin digest, nanoLC-MS/MS, MassMatrix search; the text does not tell which cross-link came from which complex. The settings on record: both partners purified.

Assay [3] addresses T3, eIF2Bγ, FLAG-tagged (γ-subunit of yeast eIF2B) (S. cerevisiae, UniProt P09032 1-578).
T3 construct: eIF2B gamma subunit (GCD1), S. cerevisiae; Bait of all eIF2B complex purifications; also called GCD1-FLAG2-His6; source: S. cerevisiae strains overexpressing eIF2B subunits, purified (anti-FLAG resin, FLAG peptide elution); not shown: FLAG2, C-terminal, kept
T3 sequence (looked up): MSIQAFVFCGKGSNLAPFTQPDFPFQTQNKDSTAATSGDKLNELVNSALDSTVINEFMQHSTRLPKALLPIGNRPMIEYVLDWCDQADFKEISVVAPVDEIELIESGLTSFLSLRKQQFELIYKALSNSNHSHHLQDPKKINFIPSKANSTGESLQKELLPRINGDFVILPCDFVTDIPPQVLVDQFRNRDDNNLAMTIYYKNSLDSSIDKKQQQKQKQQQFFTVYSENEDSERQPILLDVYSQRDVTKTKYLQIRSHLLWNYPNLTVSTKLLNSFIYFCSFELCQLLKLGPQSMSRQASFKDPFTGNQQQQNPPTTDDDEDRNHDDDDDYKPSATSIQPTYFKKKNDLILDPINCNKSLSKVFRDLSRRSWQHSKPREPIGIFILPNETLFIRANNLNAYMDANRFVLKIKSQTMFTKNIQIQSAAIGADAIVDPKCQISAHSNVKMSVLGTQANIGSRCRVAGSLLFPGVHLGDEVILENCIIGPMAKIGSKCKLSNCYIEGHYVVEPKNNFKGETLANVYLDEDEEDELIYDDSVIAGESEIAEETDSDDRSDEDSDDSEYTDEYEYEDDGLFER
The assay is described as above. The settings on record: both partners purified.

Assay [4] has as its target T4, eIF2Bδ (δ-subunit of yeast eIF2B) (S. cerevisiae, UniProt P12754 1-651).
T4 construct: eIF2B delta subunit (GCD2), S. cerevisiae; Subunit of the purified eIF2B complexes, written alone for the subunit pairs; also called eIF2B δ-subunit; δ/Gcd2
T4 sequence (looked up): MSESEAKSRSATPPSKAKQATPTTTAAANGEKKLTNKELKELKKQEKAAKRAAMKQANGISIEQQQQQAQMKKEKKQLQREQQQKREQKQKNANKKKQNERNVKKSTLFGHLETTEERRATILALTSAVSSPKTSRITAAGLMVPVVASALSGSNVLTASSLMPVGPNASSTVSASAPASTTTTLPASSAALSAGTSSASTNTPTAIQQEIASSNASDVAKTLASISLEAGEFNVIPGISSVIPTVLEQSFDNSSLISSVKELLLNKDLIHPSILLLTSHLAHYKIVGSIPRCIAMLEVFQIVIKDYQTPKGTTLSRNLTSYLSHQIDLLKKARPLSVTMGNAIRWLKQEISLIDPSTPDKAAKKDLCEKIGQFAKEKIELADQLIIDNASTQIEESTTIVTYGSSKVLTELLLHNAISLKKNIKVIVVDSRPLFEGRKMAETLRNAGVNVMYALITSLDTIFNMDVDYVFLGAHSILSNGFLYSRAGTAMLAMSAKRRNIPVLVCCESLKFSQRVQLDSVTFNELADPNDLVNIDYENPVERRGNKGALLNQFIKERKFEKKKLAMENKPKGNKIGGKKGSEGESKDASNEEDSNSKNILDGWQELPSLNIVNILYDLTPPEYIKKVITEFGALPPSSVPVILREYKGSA
The description is as above. The settings on record: both partners purified.

Assay [5] concerns the target eIF2α phosphorylated at Ser51 (subunit of phosphorylated eIF2) (S. cerevisiae) (UniProt P20459). The assay is described as follows: label-free quantitative proteomics (iBAQ) of the purified complex; eIF2-eIF2B complex purified after phosphorylation of eIF2, trypsin digest, nanoLC-MS/MS, iBAQ intensities compared; eIF2B subunits relative to FLAG-tagged γ (set to 1), eIF2 subunits relative to α.

Turning to `Nc1nc(=S)c2ncn([C@@H]3O[C@H](COP(=O)(O)OP(=O)(O)OP(=O)(O)O)[C@@H](O)[C@H]3O)c2[nH]1` [6-Thio-GTP], the “photo-cross-linking and native nano-electrospray MS” value in assay [1] is “After incubation with 6-Thio-GTP and ultraviolet irradiation, the intensity of the GTP-bound population”.

B1: eIF2β (β-subunit of yeast eIF2) (natural protein, S. cerevisiae, UniProt P09064 1-285, looked up)
chain: MSSDLAAELGFDPALKKKKKTKKVIPDDFDAAVNGKENGSGDDLFAGLKKKKKKSKSVSADAEAEKEPTDDIAEALGELSLKKKKKKTKDSSVDAFEKELAKAGLDNVDAESKEGTPSANSSIQQEVGLPYSELLSRFFNILRTNNPELAGDRSGPKFRIPPPVCLRDGKKTIFSNIQDIAEKLHRSPEHLIQYLFAELGTSGSVDGQKRLVIKGKFQSKQMENVLRRYILEYVTCKTCKSINTELKREQSNRLFFMVCKSCGSTRSVSSIKTGFQATVGKRRRM
notes: eIF2 beta subunit (SUI3), S. cerevisiae; Subunit of the purified eIF2 complex, written alone for the subunit pairs; also called eIF2 β-subunit; SUI3
Turning to B1, the binding result in assay [2], in assay [3] and in assay [4] was “binds” in each case. In addition, the stoichiometry N (usually the number of molecules, sites or subunits per partner or assembly) in assay [5] stood at 1.08.
